Measured values taken from PMC7544233 (2020).

T1: RHAU53 peptide (UniProt Q9H2U1 53-105)
T1 sequence: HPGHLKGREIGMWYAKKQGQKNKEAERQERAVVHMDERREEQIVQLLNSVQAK


What was measured:
[1] = test system: FAM-D-hTERC rG4 (RNA, G4) GGGUUGCGGAGGGUGGGCCU; assay: microscale thermophoresis; details: 150 mM KCl, 1 mM MgCl2; 25 mM Tris-HCl pH 7.5, 25 °C, 40 nM RNA
[2] = target: nucleolin (UniProt P19338 1-710); assay: EMSA
[3] = target: T1, RHAU53 peptide; assay: EMSA

nucleolin, sequence (P19338 whole entry): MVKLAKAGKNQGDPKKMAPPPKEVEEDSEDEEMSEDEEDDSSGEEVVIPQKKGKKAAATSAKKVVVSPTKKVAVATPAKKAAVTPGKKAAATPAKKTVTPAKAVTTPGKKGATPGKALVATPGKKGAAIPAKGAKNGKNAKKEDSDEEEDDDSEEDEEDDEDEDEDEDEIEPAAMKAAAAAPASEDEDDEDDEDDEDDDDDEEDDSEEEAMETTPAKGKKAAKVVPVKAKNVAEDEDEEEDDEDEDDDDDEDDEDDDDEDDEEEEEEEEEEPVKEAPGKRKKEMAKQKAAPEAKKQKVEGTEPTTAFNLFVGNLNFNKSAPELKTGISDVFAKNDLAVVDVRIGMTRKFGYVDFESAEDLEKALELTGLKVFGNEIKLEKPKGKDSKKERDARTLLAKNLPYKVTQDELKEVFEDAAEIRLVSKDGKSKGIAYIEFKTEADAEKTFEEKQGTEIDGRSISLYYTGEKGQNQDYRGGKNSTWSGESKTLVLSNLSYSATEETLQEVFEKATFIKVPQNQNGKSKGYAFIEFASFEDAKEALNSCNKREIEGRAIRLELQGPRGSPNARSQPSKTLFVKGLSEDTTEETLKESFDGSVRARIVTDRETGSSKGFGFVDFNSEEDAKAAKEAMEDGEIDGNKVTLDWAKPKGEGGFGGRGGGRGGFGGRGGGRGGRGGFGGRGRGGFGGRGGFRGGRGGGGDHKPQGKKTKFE

Kd [1] | Molecule | binding result [2] | Kd [3]
19.5 ± 11.5 nM | NCCOc1cc(NC(=O)c2cc(OCc3cn(CCC(=O)O)nn3)cc(C(=O)Nc3cc(OCCN)c4ccccc4n3)n2)nc2ccccc12 | – | –
– | GGGUUGCGGAGGGUGGGCCU (structured_RNA) [D-hTERC rG4] | binds | 24.5 ± 3.9 nM
